Target: skeletal muscle ryanodine receptor (RyR1) purified from sheep skeletal muscle, homotetramer (sheep (endogenous in skeletal muscle))
Assay: negative-stain TEM

- stoichiometry N: 4
Substance: skeletal muscle ryanodine receptor (RyR1) purified from sheep skeletal muscle, homotetramer

Source: paper PMC3504746
